Measured values from the supplement of paper PMC12042874.
± gives the uncertainty stated by the source.

Assay: amyloid nucleation score (Sup35N fusion, yeast selection) (log enrichment); library NNK2; higher = more nucleation; inactive = no reads after selection
Summary of the method: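 DiMSum was used to calculate nucleation scores as log enrichment of output over input reads, centred on the mode score of non-aggregating sequences. Sequences with fewer than 100 input reads were not scored. Input and output came from Illumina sequencing of plasmid inserts in psi-negative yeast expressing peptides of 20 random codons fused to Sup35N, induced 24 hours with 100 μM copper sulfate and then grown 7 days at 30°C on medium lacking adenine and uracil.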

Substance	amyloid nucleation score
SVGYWTVDSVTSVATPLFLA	0.331 ± 0.35
CSYVAGETSLERSHCILGWS	0.161 ± 0.34
WVCLYDVVICRIRLSDRENS	0.713 ± 0.74
SYIWR	-0.551 ± 0.64
GATGGLSVCELVRCSELNRG	0.985 ± 0.37
RVSQHGEVPSTCFSK	1.39 ± 0.38
KLQFVGFCTNDAKYKGRIPG	2.35 ± 0.089
SRTDVPSTMLLSESRAVNYY	-0.569 ± 1.1
RRGENIDESVRVVEWGVDVM	0.64 ± 0.47
NISHVVNLHAWLYRLL	3.39 ± 0.13
QLFVMADNVRESSKTLRTIW	-0.513 ± 0.35
IMPVMLERTGLSGLMCNGWG	-0.315 ± 0.65
GLNVLCSLAIKAKLDGRWRH	9.371 ± 0.072
CLSMFTVWSLAFASLSVTMR	-0.034 ± 0.45
SVYLVG	-0.271 ± 0.65
SLIKKFMLCFVYQREAHLLS	0.402 ± 0.8
GRKISNCCQCWCHGL	7.72 ± 0.042
TLGTLRQ	1.59 ± 0.23
SVVLYMLVLLDADLSVKTRD	2.52 ± 0.06
NGVQKVVCQGTRLGCVLGLD	0.131 ± 0.45
CNFLFYPFWCWLSICYFRSM	4.55 ± 0.085
GEGHWNYLLASFCNHGMCYF	7.471 ± 0.029
YLSAAVKTEVV	0.619 ± 0.37
RYRLISTTFGVAHSFEPPRL	4.26 ± 0.059
VRYDGSKAFEVYMNQIENGS	-0.905 ± 0.33

Substance	amyloid nucleation score
CLPNTST	0.075 ± 0.2
HCGVLVDISFEHALIFR	-1.99 ± 0.78
SGESSNCWLMIL	inactive
DVPLCLYCMYLSSFRVVIWM	2.35 ± 0.1
VVAVVPYFN	-0.202 ± 1.1
CFAGLFLLSSEFFYRLTSRR	1.58 ± 0.12
WLLVYYISARVQQSADNKRW	-1.02 ± 1
VMGCFSIGGLGMGVPMVYSR	0.651 ± 0.44
GIVVFINEMLTNTNPGKS	6.954 ± 0.039
AFAVSSLESGWRRRTSLEWL	0.106 ± 0.55
MVPKNFYFRRWLSWLRVRLL	0.144 ± 0.52
IDVGYIYGMVCWQTG	4.08 ± 0.083
VERIKLFASAHYS	-0.203 ± 0.35
RAVEMVYCKLRMSQDGHLRW	5.482 ± 0.048
MCRYCLVWYGFLNYSTLTRG	-1.37 ± 0.62
THLKYTFWIFV	2.62 ± 0.14
SFCVALFSWSVYVTIRVHYR	-0.545 ± 0.79
WVDIPFW	-0.83 ± 1.1
ILLFQSAYHKSIEIWGNESF	4.21 ± 0.043
YVGLV	-0.23 ± 0.22
LCFATYVGTGCVLGLPGYHK	4.59 ± 0.066
LATTVYFGAMGHVS	-1.38 ± 1
IRGYYYGMRYSDWGSC	-0.06 ± 0.31
GTRYLRVSFNCAVRV	1.22 ± 0.69
LYRRFRQRCIRERERLVHGL	0.01 ± 0.38

Substance	amyloid nucleation score
LFVYWV	0.126 ± 0.38
VSTTLTCEMLSVAVLFT	0.886 ± 0.3
FIGVSGLRCRGVMCSCYASY	1.53 ± 0.17
NVHDSLFWQFVIVNYTIGLS	3.38 ± 0.042
SVVLFEYGWICEIIEGSDII	inactive
CHSRLLEYGENCNRIEYCLC	-0.459 ± 0.27
PSCDVFVKIRLHFAFVKNFI	inactive
HDRIFSIKSWWCRSIWEVGV	-1.79 ± 0.78
PEFLNKMQTTIYDKDCYMDR	inactive
TLPRSII	-0.113 ± 1.1
LLFMSSNIFDMCREFDRC	inactive
LFDFGETVVIVLHVHSMLCL	4.41 ± 0.092
NHAQMDMKTHVINRLCKE	0.605 ± 0.57
FFTRRLNSNWMCFLADNCYR	-0.439 ± 0.64
QSIRFVFLPYELGTYHGDEG	-0.241 ± 0.24
KFIFTSLAN	-0.425 ± 0.61
YCVSPELDWTSIARGHTFNV	-0.509 ± 1.1
TTRYANWNMNINLGL	6.613 ± 0.046
SFEFVACVVMYMCCRTMFIL	-0.164 ± 0.24
RFDWRFCVVNRPGGKWLVVR	0.824 ± 0.29
AVSFRFIGVYRGM	3.95 ± 0.12
NGFMVSFV	-1.39 ± 0.41
SGFKLLGFTNYVHAVSMGSQ	3.25 ± 0.15
SCMSFVLKFPQTLSVWVCWG	4.97 ± 0.072
IHLIREVAQRFTSCA	0.7 ± 0.28

Substance	amyloid nucleation score
ISSYEVELDALIVWGDTSSG	0.006 ± 0.49
GYSSGFQVAVNLRSTLRQSY	3.03 ± 0.068
YREACCCNSFACPGATDVGP	9.188 ± 0.046
SGGLLKRWYRVDLGVVRYLY	inactive
SFLFMKSTIRFIEL	-1.34 ± 0.36
GYKHLIRVQWSKTYSSTGFC	-0.356 ± 1.1
RYRVRKCSLANWDEWTTIGC	1.67 ± 0.19
CFTCHTIYCVYSKFKRDMDR	3.56 ± 0.047
MLWQFKWESGYVTLRARPN	inactive
YCKFYWNHNVYCLVALWRLW	-0.149 ± 0.79
VIAFYVAFFNRTRVSYRSLW	4.22 ± 0.06
DAWFVINHHPIEYLSLRVWR	0.98 ± 0.27
IQSFVKYKNVSRMYLTCPNL	1.2 ± 0.2
LDFHPVCRGMSSPCQCASMR	0.907 ± 0.2
TSLMRYIPMGHLKAWIFLSI	0.049 ± 1.1
LCLDIMFVSNI	-0.696 ± 1
YVAAGLWVMWTGALKMRQAG	0.954 ± 0.66
FFFKSSLLR	0.241 ± 0.8
KHMYYYCLYANELQVAVEMN	-0.235 ± 0.45
SGLLVSNKFWGICTNYFGQR	6.684 ± 0.045
LTAGVYSSSWSDVS	1.4 ± 0.14
GCHSWSNLGEWCCYIYKMVI	-1.14 ± 0.78
GCSVKFIFNHKSGYYIYLLF	-0.822 ± 0.54
RDWQYRIYVQCNR	2.17 ± 0.14
RLLMGPVNSFGR	3.57 ± 0.07

Substance	amyloid nucleation score
IDFRISLCVRFFGCFLLDYY	-0.618 ± 0.76
IASRLTPHSLYFLINVGRGR	2.88 ± 0.14
FPIAVVKRALDLAVNGLESD	0.021 ± 0.44
SLTGSQSGQGDLCVLVRYNH	3.84 ± 0.12
IARDYVQ	-0.918 ± 0.54
LSDFEIFTLTIHSHLYHN	1.66 ± 0.24
CQSLIFASTYHRNSSFGKNV	2.92 ± 0.16
CLSRLNVLWYSPFKHFILEC	-0.267 ± 0.45
GELWCDLRILFVGVSLIVL	inactive
VYEKVVLGKDFVM	-0.28 ± 0.79
CISSMVALMGGPWNEMLGTW	0.767 ± 0.74
WPNFV	-0.995 ± 0.76
VARHIHLTRSRNNFSSGRKA	0.958 ± 0.4
LLEFWDHLVYSMIECNRKNV	inactive
PCISDIFKMDNIYGQQSLFP	-0.266 ± 1.1
VVDTMNFNYCVVCSLRSVWQ	10.5 ± 0.058
RYALNYTIPEPYWT	-0.576 ± 0.55
NRFAHNALVAL	4.08 ± 0.062
SNIYRCPVMSIRSVSHS	0.536 ± 0.66
FFWNM	-0.274 ± 0.34
AYHDYLSRGGTHVVVCYYLS	inactive
TRETHLGNAFA	0.674 ± 0.53
SGIWFQQDMMN	-0.258 ± 0.55
VDVLLFRDYLNYSNLITHKV	-1.21 ± 0.54
SFIHFPFWFILHNRALTRRV	0.057 ± 1.1

Substance	amyloid nucleation score
VSLLNGYGAHSDMSAVGRRR	0.649 ± 0.47
VSSHNCWFFRGSGWFLFHHW	inactive
CVSEDDCLDYPKV	2.29 ± 0.13
VRMSSRRS	1.24 ± 0.36
DRLLRSRLGIRSNRIVCW	-0.539 ± 0.36
LDYRWKTGGSLWGG	-0.578 ± 1.1
TFFGWLALRIWARYRYE	inactive
KRFYMT	1.31 ± 0.081
VLHKNTKMANTWVHNPTEVE	-0.328 ± 0.27
HCLFSGYYLKLN	inactive
KHMNAYCNVTYQIDFRCIIS	inactive
CNPIGIMHN	inactive
SFGHATLYSFH	-0.058 ± 0.65
LNDGPEGTCWSPNGVNSLLH	-0.382 ± 0.76
SWVRVDHLNDMYRFELK	0.286 ± 0.46
LAKHTGRAGKRCKDMP	-0.069 ± 0.31
LALMS	-0.324 ± 0.61
YGRLECISWCPISIHCGGAR	3.47 ± 0.11
VYGPTVNFK	0.761 ± 0.25
VLCSCCLVVNIVNVLSVHSY	8.363 ± 0.06
YSHSLHVIQKSFFCITVFVM	5.28 ± 0.08
MAAVSETHPGAEGSNRVVSE	3.06 ± 0.07
MLYSSR	-1.44 ± 0.44
TSNNVCCARHPI	1.37 ± 0.29
STSVTMHSLSDF	-1.02 ± 0.78

Substance	amyloid nucleation score
WYMKILFGKRFSFGGVVSIF	3.74 ± 0.11
RLNVISIQNAIMRVVRTKRF	3.61 ± 0.12
HIDEYKWT	0.546 ± 0.8
CIFFLVV	4.79 ± 0.071
VISKVSLDVCRCIRFLHYDS	7.692 ± 0.061
CSCFWCRRRKNYKFLGGCGS	-1.25 ± 1.1
FNSLILQIIVVRV	7.843 ± 0.04
TFLLAFFIFFLNG	-0.306 ± 0.53
RAWCYTGMRGDMESW	-0.447 ± 0.41
AHLVCRLYETMQLYLYLQWY	-1.01 ± 0.3
MTCSSHCGMCIPSIPQVFGA	1.02 ± 0.4
RNFDRGWSHR	0.319 ± 0.4
GFRFSVIGI	-0.101 ± 0.63
MKVPVRIRWVPLFSDFTYQV	-0.736 ± 0.36
LWLLMYGSW	2.4 ± 0.1
HLWSLRGPIAFIENRLSVWI	0.605 ± 0.51
QIYCVSPLSRHWYFARYGVT	0.78 ± 0.32
NSGSYTSSFNDLVDTLSVLS	inactive
MLDYFGLWSWARSSNYLEFK	-1.09 ± 0.31
CFRFLGREECKLTFGSDEMI	inactive
DSSRAVLGVIRYSSEGSL	-0.34 ± 0.41
